Experimental data from US20020103133.

Columns and labels:
[1] = system: succinyl-P-L-G-Hof-Y-L-Dox
[2] = system: acetyl-P-L-G-Hof-Orn-L-Dox

MMP-9
kcat/Km (cleavage of conjugate, HPLC) (acetyl-P-L-G-Hof-Y-L-Dox): 3.4e+07 M⁻¹ s⁻¹ | kcat/Km (cleavage of conjugate, HPLC) [1]: > 1.2e+08 M⁻¹ s⁻¹ | kcat/Km (cleavage of conjugate, HPLC) (acetyl-G-P-L-G-L-Y-Dox): 1.1e+08 M⁻¹ s⁻¹ | kcat/Km (cleavage of conjugate, HPLC) (acetyl-P-L-G-L-Y-L-Dox): 3.9e+08 M⁻¹ s⁻¹ | kcat/Km (cleavage of conjugate, HPLC) (acetyl-P-L-G-L-A-A-L-Dox): 1.65e+08 M⁻¹ s⁻¹ | kcat/Km (cleavage of conjugate, HPLC) (acetyl-P-L-G-L-L-Dox): 1.3e+08 M⁻¹ s⁻¹ | kcat/Km (cleavage of conjugate, HPLC) [2]: 2.6e+07 M⁻¹ s⁻¹ | kcat/Km (cleavage of conjugate, HPLC) (acetyl-P-L-G-L-L-S-L-Dox): 1.49e+08 M⁻¹ s⁻¹ | kcat/Km (cleavage of conjugate, HPLC) (acetyl-P-L-G-L-A-L-Dox): 2.4e+07 M⁻¹ s⁻¹ | kcat/Km (cleavage of conjugate, HPLC) (acetyl-P-L-G-L-Y-A-L-Dox): 2.96e+08 M⁻¹ s⁻¹ | kcat/Km (cleavage of conjugate, HPLC) (acetyl-G-P-L-G-L-L-Dox): 9.5e+07 M⁻¹ s⁻¹ | kcat/Km (cleavage of conjugate, HPLC) (acetyl-G-P-L-G-L-A-L-Dox): 1.9e+07 M⁻¹ s⁻¹ | kcat/Km (cleavage of conjugate, HPLC) (acetyl-P-L-G-L-L-A-L-Dox): 1.3e+08 M⁻¹ s⁻¹
